Several values for one entry are separate records, joined by “and”; a condition that tells them apart may be missing. Equal entries are not always repeated.
Molecular target: hamster ACE2 ectodomain with human IgG1 Fc tag (hamster)
Assay: BLI

SARS-CoV-2 spike protein of Alpha (B.1.1.7), S^Alpha, recombinant trimeric ectodomain (from UniProt P0DTC2 14-1208) (domain or fragment)
kon: 111000 M⁻¹ s⁻¹ and 90700 M⁻¹ s⁻¹ and 98000 M⁻¹ s⁻¹

Source: paper PMC8828469
